Experimental data as given in article PMC10680678.
Like-named read-outs stand apart in the source and are kept apart here.

Assays:
[1] = target: Human CD44 extracellular domain (human) (UniProt P16070); assay: ITC
[2] = target: Mouse CD44 extracellular domain (mouse) (UniProt P15379); assay: ITC
[3] = target: Biotinylated avi-tagged human TβRI (human) (UniProt P36897); assay: SPR
[4] = target: Biotinylated avi-tagged human TβRII (human) (UniProt P37173); assay: SPR
[5] = target: Biotinylated avi-tagged human TβRI (human) (UniProt P36897); assay: SPR; remark: listed apart in the source

Sequence of UniProt P36897 (P36897 34-126): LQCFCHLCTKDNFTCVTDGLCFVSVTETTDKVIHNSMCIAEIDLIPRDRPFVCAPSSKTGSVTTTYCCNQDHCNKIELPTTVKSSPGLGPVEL
Sequence of UniProt P16070 (P16070 21-649): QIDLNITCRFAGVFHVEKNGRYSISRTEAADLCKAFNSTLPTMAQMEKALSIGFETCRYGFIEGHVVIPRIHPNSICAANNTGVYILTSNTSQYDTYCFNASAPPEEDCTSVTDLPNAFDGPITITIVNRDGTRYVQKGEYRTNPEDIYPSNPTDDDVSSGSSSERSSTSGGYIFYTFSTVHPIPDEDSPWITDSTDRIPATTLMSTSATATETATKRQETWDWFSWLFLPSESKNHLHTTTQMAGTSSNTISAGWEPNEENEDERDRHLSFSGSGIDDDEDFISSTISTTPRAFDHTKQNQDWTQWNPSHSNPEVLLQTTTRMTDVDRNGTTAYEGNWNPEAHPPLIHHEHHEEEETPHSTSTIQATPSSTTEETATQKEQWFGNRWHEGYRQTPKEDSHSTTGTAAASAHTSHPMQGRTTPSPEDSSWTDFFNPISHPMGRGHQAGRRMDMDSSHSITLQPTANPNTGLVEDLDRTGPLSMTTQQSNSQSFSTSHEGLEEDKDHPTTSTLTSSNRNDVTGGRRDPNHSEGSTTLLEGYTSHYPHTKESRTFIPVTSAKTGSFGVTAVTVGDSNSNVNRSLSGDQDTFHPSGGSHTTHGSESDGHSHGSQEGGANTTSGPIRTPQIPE
Sequence of UniProt P15379 (P15379 23-685): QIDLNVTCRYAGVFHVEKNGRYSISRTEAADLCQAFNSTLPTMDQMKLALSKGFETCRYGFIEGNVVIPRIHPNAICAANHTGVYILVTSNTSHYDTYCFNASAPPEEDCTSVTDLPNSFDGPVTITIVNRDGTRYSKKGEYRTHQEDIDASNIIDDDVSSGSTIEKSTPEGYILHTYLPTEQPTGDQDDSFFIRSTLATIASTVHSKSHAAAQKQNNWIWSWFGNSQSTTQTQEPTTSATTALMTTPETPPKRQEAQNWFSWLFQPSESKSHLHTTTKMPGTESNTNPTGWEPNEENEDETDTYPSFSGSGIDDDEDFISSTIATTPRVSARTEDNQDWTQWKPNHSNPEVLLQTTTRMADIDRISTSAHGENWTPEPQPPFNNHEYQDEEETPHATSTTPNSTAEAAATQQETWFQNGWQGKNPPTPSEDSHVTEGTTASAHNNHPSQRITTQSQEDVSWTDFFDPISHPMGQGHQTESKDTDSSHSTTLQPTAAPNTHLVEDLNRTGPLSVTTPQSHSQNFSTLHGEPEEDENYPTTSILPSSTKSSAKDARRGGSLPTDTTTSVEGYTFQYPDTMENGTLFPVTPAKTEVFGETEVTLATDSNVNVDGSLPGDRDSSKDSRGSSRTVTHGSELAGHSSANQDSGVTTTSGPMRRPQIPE
Sequence of UniProt P37173 (P37173 23-166): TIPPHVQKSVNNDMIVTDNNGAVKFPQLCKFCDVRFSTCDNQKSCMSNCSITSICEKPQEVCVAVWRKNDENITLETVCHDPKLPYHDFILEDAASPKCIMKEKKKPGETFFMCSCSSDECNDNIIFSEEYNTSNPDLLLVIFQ

Substance | Kd [1] [nM] | Kd [2] [nM] | Kd [3] [nM] | Kd [4] [nM] | Kd [5] [nM]
TGM1 D4-5 fragment (domain or fragment) | 140 | 62 |  |  | 
TGM1 full-length recombinant protein (natural protein) |  |  | 70 |  | 
TGM4 D4-5 recombinant protein (domain or fragment) | 56 | 20 |  |  | 
TGM4 full-length recombinant protein (natural protein) |  |  | 3.2 | 116000 | 3 to 5
